Data from patent US20230212549A1, “COMPOUNDS COMPRISING A […] LIGAND AND USE THEREOF” (priority 2021, published 2023).
Bridge positions count the residues as written; N and C are the ends.

Columns and labels:
Test in all cases: cell-based or functional assay
[1] = target: T1, Caspase-3, P42574
T1 chain: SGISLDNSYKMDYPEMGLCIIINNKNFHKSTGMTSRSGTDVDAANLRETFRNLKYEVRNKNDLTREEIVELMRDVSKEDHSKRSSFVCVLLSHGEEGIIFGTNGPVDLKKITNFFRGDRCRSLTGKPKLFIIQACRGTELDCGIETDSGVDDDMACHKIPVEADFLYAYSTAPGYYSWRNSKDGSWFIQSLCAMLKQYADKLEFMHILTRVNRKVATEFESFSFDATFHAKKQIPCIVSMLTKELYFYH

[2] = target: Cathepsin B, P07858
[3] = target: T2, Caspase-8, Q14790
T2 chain: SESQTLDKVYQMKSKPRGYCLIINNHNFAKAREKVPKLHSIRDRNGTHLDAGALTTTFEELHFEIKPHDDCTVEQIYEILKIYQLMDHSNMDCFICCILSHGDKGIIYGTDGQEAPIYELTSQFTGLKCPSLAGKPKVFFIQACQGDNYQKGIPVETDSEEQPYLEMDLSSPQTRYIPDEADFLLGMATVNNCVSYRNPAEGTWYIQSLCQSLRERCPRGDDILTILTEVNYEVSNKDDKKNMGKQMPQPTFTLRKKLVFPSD

[4] = target: T3, Matrix metalloprotease 2, P08253
T3 chain: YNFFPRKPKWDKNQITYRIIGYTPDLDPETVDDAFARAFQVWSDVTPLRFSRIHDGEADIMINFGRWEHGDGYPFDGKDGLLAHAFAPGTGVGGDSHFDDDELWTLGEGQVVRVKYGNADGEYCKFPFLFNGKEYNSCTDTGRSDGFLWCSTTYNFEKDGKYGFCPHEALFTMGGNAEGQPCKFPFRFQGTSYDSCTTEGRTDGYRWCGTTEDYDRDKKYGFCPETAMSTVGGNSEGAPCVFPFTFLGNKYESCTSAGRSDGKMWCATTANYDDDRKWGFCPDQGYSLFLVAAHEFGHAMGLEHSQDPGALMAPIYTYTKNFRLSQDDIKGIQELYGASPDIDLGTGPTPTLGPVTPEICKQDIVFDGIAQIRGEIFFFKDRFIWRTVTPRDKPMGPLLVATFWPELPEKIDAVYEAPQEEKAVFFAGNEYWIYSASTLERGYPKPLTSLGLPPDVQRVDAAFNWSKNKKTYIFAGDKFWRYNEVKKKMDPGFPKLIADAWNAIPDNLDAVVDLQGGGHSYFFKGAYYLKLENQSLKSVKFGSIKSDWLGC

[5] = target: Cathepsin L, P07711
[6] = target: T4, Ubiquitin carboxy-terminal hydrolase L3, P15374
T4 chain: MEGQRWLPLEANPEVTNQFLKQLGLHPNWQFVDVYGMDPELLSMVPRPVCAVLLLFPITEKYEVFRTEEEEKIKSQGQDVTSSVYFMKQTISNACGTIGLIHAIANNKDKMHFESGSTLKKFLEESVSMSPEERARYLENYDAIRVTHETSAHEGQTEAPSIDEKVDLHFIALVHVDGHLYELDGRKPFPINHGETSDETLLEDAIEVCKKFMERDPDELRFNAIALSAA

[7] = target: PDE3A (h) (human), Q14432
[8] = target: T5, Matrix metalloprotease 1, P03956
T5 chain: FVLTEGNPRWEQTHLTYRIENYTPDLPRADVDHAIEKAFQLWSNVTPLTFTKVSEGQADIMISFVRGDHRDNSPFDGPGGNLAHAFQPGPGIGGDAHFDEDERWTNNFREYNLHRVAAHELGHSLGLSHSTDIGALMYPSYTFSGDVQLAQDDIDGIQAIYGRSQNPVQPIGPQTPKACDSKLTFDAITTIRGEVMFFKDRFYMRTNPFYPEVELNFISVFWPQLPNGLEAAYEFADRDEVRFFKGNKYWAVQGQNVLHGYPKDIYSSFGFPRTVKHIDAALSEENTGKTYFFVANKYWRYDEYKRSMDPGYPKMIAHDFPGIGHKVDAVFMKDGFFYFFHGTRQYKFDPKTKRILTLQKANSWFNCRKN

[9] = target: Ubiquitin carboxyl-terminal hydrolase 14, P54578
[10] = target: DPP8, Q6V1X1
[11] = target: FAP (protease specificity screen, BPS Biosciences), Q12884
[12] = target: DPP7, Q9UHL4
[13] = target: T6, PDE4D2 (h) (human), Q08499
T6 chain: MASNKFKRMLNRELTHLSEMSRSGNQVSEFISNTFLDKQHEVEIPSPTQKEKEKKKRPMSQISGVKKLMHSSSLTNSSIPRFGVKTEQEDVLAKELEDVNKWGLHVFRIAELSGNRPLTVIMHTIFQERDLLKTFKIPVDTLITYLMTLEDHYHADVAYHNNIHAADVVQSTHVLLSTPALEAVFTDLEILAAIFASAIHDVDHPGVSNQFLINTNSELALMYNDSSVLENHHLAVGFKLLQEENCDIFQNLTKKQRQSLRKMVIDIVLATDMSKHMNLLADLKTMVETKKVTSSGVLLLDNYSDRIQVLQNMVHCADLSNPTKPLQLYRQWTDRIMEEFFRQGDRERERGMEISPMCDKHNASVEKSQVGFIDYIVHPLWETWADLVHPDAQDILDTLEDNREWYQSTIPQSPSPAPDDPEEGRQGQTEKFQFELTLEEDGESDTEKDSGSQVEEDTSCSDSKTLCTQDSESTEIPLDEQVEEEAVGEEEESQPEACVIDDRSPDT

[14] = target: Cathepsin S, P25774
Sequence of Cathepsin S, P25774 (P25774 115-331 limits assumed): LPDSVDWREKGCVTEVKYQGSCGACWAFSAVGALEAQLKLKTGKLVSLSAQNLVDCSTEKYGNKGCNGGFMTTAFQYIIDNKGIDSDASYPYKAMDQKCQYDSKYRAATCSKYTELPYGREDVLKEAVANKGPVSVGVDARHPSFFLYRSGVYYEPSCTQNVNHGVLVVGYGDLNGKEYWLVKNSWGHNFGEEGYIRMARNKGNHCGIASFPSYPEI

Sequence of FAP (protease specificity screen, BPS Biosciences), Q12884 (Q12884 27-760 limits assumed): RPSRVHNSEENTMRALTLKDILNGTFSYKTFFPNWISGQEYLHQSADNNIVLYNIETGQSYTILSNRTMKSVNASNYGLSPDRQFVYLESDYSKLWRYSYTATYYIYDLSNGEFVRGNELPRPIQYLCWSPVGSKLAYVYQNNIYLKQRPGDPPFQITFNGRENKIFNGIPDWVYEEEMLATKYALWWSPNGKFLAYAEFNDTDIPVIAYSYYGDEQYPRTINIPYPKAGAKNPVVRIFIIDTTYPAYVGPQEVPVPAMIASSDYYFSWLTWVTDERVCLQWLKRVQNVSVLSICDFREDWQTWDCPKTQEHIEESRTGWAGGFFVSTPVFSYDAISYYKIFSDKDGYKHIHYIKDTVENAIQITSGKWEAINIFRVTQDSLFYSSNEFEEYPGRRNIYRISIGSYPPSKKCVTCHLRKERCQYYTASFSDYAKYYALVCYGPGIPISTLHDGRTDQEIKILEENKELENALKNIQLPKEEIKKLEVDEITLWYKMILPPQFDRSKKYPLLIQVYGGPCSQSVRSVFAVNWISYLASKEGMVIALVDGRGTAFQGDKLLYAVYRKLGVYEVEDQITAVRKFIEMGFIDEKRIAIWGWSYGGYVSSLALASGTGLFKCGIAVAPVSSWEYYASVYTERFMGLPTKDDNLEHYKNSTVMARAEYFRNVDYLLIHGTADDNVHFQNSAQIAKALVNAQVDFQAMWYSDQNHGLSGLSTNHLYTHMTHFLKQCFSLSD
Sequence of Cathepsin L, P07711 (P07711 114-333 limits assumed): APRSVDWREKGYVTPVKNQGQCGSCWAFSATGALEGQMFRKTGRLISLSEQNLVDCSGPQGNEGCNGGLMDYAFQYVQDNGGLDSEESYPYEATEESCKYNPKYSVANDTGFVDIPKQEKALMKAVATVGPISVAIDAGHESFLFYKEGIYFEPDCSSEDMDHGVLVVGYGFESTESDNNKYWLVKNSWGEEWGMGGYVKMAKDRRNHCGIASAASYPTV
Sequence of DPP8, Q6V1X1 (Q6V1X1 whole entry): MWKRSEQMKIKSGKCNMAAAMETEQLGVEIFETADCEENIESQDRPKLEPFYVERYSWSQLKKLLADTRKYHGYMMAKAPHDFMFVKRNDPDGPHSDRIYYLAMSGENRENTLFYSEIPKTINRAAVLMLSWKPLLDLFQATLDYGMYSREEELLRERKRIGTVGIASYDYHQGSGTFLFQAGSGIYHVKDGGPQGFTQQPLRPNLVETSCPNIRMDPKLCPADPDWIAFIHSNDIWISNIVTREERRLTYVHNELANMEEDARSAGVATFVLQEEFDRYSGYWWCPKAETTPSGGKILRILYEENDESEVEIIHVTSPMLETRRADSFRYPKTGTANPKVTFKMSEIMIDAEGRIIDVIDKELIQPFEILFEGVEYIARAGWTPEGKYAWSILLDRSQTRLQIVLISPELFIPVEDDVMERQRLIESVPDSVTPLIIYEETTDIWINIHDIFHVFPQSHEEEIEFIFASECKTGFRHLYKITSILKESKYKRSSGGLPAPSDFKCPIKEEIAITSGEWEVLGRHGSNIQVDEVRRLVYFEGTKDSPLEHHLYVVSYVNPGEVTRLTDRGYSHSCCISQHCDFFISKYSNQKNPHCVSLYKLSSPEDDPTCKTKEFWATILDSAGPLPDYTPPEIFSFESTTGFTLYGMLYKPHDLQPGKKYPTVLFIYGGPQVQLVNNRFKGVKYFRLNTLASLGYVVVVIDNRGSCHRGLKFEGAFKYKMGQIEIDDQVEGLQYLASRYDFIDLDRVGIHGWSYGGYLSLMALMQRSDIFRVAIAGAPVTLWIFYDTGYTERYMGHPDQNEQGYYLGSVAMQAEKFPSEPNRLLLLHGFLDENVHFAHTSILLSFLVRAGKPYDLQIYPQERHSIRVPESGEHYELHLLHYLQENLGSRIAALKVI
Sequence of Ubiquitin carboxyl-terminal hydrolase 14, P54578 (P54578 whole entry): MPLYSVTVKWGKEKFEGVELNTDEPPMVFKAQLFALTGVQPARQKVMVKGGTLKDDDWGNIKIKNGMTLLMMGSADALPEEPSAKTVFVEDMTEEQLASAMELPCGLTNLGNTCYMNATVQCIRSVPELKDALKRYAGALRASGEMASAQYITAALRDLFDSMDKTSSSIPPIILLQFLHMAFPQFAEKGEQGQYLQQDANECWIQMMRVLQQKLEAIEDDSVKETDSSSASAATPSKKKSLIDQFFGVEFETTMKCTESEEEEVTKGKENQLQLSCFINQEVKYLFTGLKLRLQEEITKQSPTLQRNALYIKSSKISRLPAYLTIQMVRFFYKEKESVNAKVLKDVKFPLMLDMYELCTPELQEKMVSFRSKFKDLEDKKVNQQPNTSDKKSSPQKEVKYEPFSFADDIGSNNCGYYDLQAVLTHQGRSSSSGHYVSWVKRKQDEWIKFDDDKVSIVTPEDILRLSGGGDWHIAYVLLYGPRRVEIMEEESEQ
Sequence of PDE3A (h) (human), Q14432 (Q14432 669-1141 limits assumed): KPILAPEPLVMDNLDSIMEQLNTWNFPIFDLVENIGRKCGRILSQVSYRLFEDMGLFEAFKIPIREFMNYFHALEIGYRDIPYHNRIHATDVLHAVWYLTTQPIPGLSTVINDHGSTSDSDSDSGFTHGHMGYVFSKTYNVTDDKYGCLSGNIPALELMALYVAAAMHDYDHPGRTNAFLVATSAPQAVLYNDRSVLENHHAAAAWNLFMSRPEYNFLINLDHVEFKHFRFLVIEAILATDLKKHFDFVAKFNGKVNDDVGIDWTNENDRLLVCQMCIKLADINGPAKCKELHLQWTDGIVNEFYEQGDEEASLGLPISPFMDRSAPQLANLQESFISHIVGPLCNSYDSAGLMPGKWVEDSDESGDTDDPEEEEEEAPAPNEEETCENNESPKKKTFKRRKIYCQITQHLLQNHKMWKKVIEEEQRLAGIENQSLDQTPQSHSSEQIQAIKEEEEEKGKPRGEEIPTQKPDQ

B1: Hex-[Cys(tMeBn(DOTA-AET))-Pro-Pro-Thr-Gln-Phe-Cys]-OH (peptide)
peptide: Hex-CPPTQFC-OH
modifications: bridge 1-7; not fully specified (bridges); printed as Hex-[Cys(tMeBn(DOTA-AET))-Pro-Pro-Thr-Gln-Phe-Cys]-OH
Percentage inhibition (%) at 1 µM [1]: -2% | Percentage inhibition (%) at 10 µM [1]: -1% | Percentage inhibition (%) at 1 µM [2]: 1% | Percentage inhibition (%) at 10 µM [2]: 2% | Percentage inhibition (%) at 1 µM [3]: 0% | Percentage inhibition (%) at 10 µM [3]: -3% | Percentage inhibition (%) at 1 µM [4]: -1% | Percentage inhibition (%) at 10 µM [4]: -2% | Percentage inhibition (%) at 1 µM [5]: 0% | Percentage inhibition (%) at 10 µM [5]: -6% | Percentage inhibition (%) at 1 µM [6]: 0% | Percentage inhibition (%) at 10 µM [6]: 0% | % inhibition of control enzyme activity, compound at 10 µM [7]: -37% | Percentage inhibition (%) at 1 µM [8]: 1% | Percentage inhibition (%) at 10 µM [8]: -7% | Percentage inhibition (%) at 1 µM [9]: 1% | Percentage inhibition (%) at 10 µM [9]: 2% | Percentage inhibition (%) at 1 µM [10]: 1% | Percentage inhibition (%) at 10 µM [10]: 11% | Percentage inhibition (%) at 1 µM [11]: 97% | Percentage inhibition (%) at 10 µM [11]: 99% | Percentage inhibition (%) at 1 µM [12]: -1% | Percentage inhibition (%) at 10 µM [12]: -7% | % inhibition of control enzyme activity, compound at 10 µM [13]: -4% | Percentage inhibition (%) at 1 µM [14]: -10% | Percentage inhibition (%) at 10 µM [14]: -23%

B2: Hex-[Cys(tMeBn(DOTA-PP))-Pro-Pro-Thr-Gln-Phe-Cys]-Asp-NH2 (peptide)
peptide: Hex-CPPTQFCD-NH2
modifications: bridge 1-7; not fully specified (bridges); printed as Hex-[Cys(tMeBn(DOTA-PP))-Pro-Pro-Thr-Gln-Phe-Cys]-Asp-NH2
Percentage inhibition (%) at 1 µM [1]: 1% | Percentage inhibition (%) at 10 µM [1]: -2% | Percentage inhibition (%) at 1 µM [2]: 26% | Percentage inhibition (%) at 10 µM [2]: 36% | Percentage inhibition (%) at 1 µM [3]: 0% | Percentage inhibition (%) at 10 µM [3]: 0% | Percentage inhibition (%) at 1 µM [4]: 3% | Percentage inhibition (%) at 10 µM [4]: 3% | Percentage inhibition (%) at 1 µM [5]: 3% | Percentage inhibition (%) at 10 µM [5]: 6% | Percentage inhibition (%) at 1 µM [6]: -1% | Percentage inhibition (%) at 10 µM [6]: 14% | % inhibition of control enzyme activity, compound at 10 µM [7]: -3% | Percentage inhibition (%) at 1 µM [8]: -1% | Percentage inhibition (%) at 10 µM [8]: 2% | Percentage inhibition (%) at 1 µM [9]: -1% | Percentage inhibition (%) at 10 µM [9]: 5% | Percentage inhibition (%) at 1 µM [10]: 1% | Percentage inhibition (%) at 10 µM [10]: 5% | Percentage inhibition (%) at 1 µM [11]: 98% | Percentage inhibition (%) at 10 µM [11]: 99% | Percentage inhibition (%) at 1 µM [12]: 2% | Percentage inhibition (%) at 10 µM [12]: -3% | % inhibition of control enzyme activity, compound at 10 µM [13]: -5% | Percentage inhibition (%) at 1 µM [14]: 3% | Percentage inhibition (%) at 10 µM [14]: 18%
